Results published in patent US20150158912A1 (CLEVELAND CLINIC FOUNDATION, published 2015).
Numbering of substitutions follows the chain as printed. In names and notes the source's numbering stands.

B1: FLAG-tagged mouse Act1 point mutant H472D (other, UniProt Q8N7N6 1-555, looked up)
chain: MNRSIPVEVDESEPFPSQLLKPIPEYSPEEELEPPAPNTRNMAPSSLSVLQCPPLKLANHQPVSQQVTCLRAKVLEEGEASFFRRHPELGKDISSCSSGASEPESELGALPPEHRFTLTEKRNRWLGSQLSAASPDTGHESDKSDPSLPNALADSFSGGQEMMPRPRPRPGPHRHRAAPDVPTIDTGYDSQPQDVLGIRQLERPLPLTSSCYLQDLPGPLRSRELPPQFELERYPMNAQLLPPHPSPQAPWNCQYYCPGGPYHHQVPHGHGYPPAAAYQQVLQPALPGQVLPGARARGPRPVQKVILNDSSPQDQEERPAQRDFSFPRLPRDQLYRPPSNGVEAPEESLDLPAELRPHGPQAPSLAAVPRPPSNPLARGTLRTSNLPEELRKVFITYSMDTAMEVVKFVNFLLVNGFQTAIDIFEDRIRGIDIIKWMERYLRDKTVMIIVAISPKYKQDVEGAESQLDEDEHGLDTKYIHRMMQIEFISQGSMNFRFIPVLFPNAKKEHVPTWLQNTHVYSWPKNKKNILLRLLREEEYVAPPRGPLPTLQVVPL
B2: Myc-tagged mouse IL-17RB point mutant L419D (receptor, UniProt Q9JIP3 18-499, looked up)
chain: REPTIQCGSETGPSPEWMVQHTLTPGDLRDLQVELVKTSVAAEEFSILMNISWILRADASIRLLKATKICVSGKNNMNSYSCVRCNYTEAFQSQTRPSGGKWTFSYVGFPVELSTLYLISAHNIPNANMNEDSPSLSVNFTSPGCLNHVMKYKKQCTEAGSLWDPDITACKKNEKMVEVNFTTNPLGNRYTILIQRDTTLGFSRVLENKLMRTSVAIPVTEESEGAVVQLTPYLHTCGNDCIRREGTVVLCSETSAPIPPDDNRRMLGGWLPLFLVLLVAVWVLAAGIYLTWRQGRSTKTSFPISTMLLPLIKVLVVYPSEICFHHTVCRFTDFLQNYCRSEVILEKWQKKKIAEMGPVQWLTTQKQAADKVVFLLPSDVPTLCDSACGHNEGSARENSQDDFPLAFNLFCSDFSSQTHLHKYLVVYLGGADLKGDYNALSVCPQYHLMKDATAFHTELLKATQSMSVKKRSQACHDSCSPL
B3: Myc-tagged mouse IL-17RB point mutant L422D (receptor, UniProt Q9JIP3 18-499, looked up)
chain: B2 chain with D402L, L405D

Key:
[1] = molecular target: T1, V5-tagged human IL-17RA, wild type (human, UniProt Q96F46 33-866, limits assumed); experiment: co-immunoprecipitation, as told back in Example 9
T1 construct: Expressed in HeLa cells and immunoprecipitated from the lysate; also called V5-tagged IL-17RA; the wild-type receptor
T1 sequence (looked up): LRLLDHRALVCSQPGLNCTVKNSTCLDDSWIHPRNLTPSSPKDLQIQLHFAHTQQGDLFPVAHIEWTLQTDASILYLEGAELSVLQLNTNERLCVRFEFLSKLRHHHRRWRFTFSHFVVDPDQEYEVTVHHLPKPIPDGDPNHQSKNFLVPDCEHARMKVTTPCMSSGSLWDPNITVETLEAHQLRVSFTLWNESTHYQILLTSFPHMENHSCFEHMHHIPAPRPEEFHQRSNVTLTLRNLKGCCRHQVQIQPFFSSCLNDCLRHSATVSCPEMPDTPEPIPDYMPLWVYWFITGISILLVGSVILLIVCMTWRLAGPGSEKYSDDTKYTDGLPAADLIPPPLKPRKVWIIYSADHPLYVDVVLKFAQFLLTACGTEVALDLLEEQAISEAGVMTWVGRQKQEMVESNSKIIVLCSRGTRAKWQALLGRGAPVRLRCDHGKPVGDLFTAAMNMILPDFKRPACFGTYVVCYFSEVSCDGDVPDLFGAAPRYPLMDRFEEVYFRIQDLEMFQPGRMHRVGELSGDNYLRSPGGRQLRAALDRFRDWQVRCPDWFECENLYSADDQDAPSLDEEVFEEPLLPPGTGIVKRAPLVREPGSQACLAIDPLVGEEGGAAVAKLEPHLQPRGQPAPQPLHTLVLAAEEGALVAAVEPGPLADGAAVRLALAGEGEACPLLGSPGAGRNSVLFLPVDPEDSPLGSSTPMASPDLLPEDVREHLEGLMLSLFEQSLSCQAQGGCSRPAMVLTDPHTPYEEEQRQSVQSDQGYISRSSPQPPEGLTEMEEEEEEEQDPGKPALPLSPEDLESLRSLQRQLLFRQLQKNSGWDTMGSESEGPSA

[2] = molecular target: T2, Act1 in IL-17RB-deficient MEFs reconstituted with Myc-tagged IL-17RB (mouse (cells are mouse embryonic …, UniProt Q8N7N6 1-555)); experiment: co-immunoprecipitation in reconstituted IL-17RB-deficient MEFs (IP anti-Myc)
T2 construct: That the co-precipitated Act1 is the cells' own is read from the description of the experiment
T2 sequence (looked up): B1 chain with D475H

Row | Binder | binding result [1] | binding result [2]
1 | B1 | no binding | 
2 | B2 |  | no binding
3 | B3 |  | no binding
